This note sets out measurements from paper doi:10.1101/2020.12.04.412312.

In the assay the target is Leptospira interrogans triosephosphate isomerase (Leptospira interrogans). Kind of assay: SEC.

Usually stoichiometry N stands for a count of units in the complex or per binding partner.

The substance “Leptospira interrogans triosephosphate isomerase (enzyme)” came in with a stoichiometry N of 2.
